For experiment [1], the target named is HLA-A0201 molecule, which is a product of the HLA-A*0201 gene (human). The experiment is described as follows: flow cytometry; reassociation of peptide, added β2m and HLA-A0201 on acid-stripped JY cells, stained with mAb BB7.2. The following applies: remark: other sources report otherwise.
Experiment [2] concerns the target HLA-A2402 molecule, which is a product of the HLA-A*2402 gene (human). The experiment is described as follows: flow cytometry; reassociation of peptide, added β2m and HLA-A2402 on acid-stripped C1R-A24 cells, stained with mAb 17A12. A general note: In flow cytometry, cells or beads pass a laser one at a time.
Experiment [3] has as its target HLA-A0206 molecule, which is a product of the HLA-A*0206 gene (human). As to the kind of experiment: flow cytometry; peptide stabilisation of empty HLA-A0206 on RA2.6 cells (TAP-deficient), stained with mAb 17A10 or 17A12.
[4] abbreviates: remark: other sources report otherwise.

Read-outs that look alike come from different tables or passages of the source.

B1: SEQ ID NO 17 (peptide)
peptide: MLLRLSEPA
Regarding B1, the -log Kd in experiment [1] was 6.2 -log Kd.

B2: SEQ ID NO 4 (peptide)
peptide: DLPTQEPAL
modifications: not checked
B2: the -log Kd in experiment [2] (setting [4]) is 5.23 -log Kd.

B3: SEQ ID NO 22 (peptide)
peptide: LVASRGRAV
modifications: not checked
Turning to B3, the -log Kd in experiment [3] was 5.25 -log Kd.

B4: SEQ ID NO 24 (peptide)
peptide: WVPVVFLTL
modifications: not checked
Regarding B4, in experiment [3], the -log Kd was 6.74 -log Kd.

B5: SEQ ID NO 19 (peptide)
peptide: GVLVHPQWV
modifications: not checked
Consider B5, for which the -log Kd in experiment [3] is 6.28 -log Kd.

B6: SEQ ID NO 12 (peptide)
peptide: WVLTAAHCI
Turning to B6, the -log Kd in experiment [2] (setting [4]) is 4.63 -log Kd.

B7: SEQ ID NO 27 (peptide)
peptide: DLPTQEPAL
modifications: not checked
On to B7, for which the -log Kd in experiment [3] was 5.26 -log Kd.

B8: SEQ ID NO 2 (peptide)
peptide: WVPVVFLTL
modifications: not checked
B8: the -log Kd in experiment [2] was 7.29 -log Kd.
